Here are results for five molecules from patent publication US20100003244A1 (TRIGEN, published 2010).

Where “and” joins values, the source holds several entries; their conditions need not be identical. Equal values may be shown once. Ends that are not written are not given here.

The target in experiment [1] is T1, GPVI peptide 117 (human).
T1 sequence (peptide, N-terminus acetylated): SFTNKVFTTETSR
As to the kind of experiment: PepSpot control incubation.

The target in experiment [2] is T2, GPVI peptide 118 (human).
T2 sequence (peptide, N-terminus acetylated): TNKVFTTETSRSI
As to the kind of experiment: PepSpot control incubation.

Experiment [3] concerns the target T3, GPVI peptide 130 (human).
T3 sequence (peptide, N-terminus acetylated): GPARQYYTKGNGG
As to the kind of experiment: PepSpot control incubation.

Experiment [4] has as its target T4, GPVI peptide 131 (human).
T4 sequence (peptide, N-terminus acetylated): ARQYYTKGNGGRE
Description: PepSpot control incubation.

For experiment [5], the target named is T5, GPVI peptide 32 (human).
T5 sequence (peptide, N-terminus acetylated): SSSRYQDQAVLFI
As to the kind of experiment: PepSpot control incubation.

Experiment [6] concerns the target T6, GPVI peptide 33 (human).
T6 sequence (peptide, N-terminus acetylated): SRYQDQAVLFIPA
As to the kind of experiment: PepSpot control incubation.

Experiment [7] has as its target T7, GPVI peptide 53 (human).
T7 sequence (peptide, N-terminus acetylated): LVATGVFAKPSLS
Description: PepSpot control incubation.

Experiment [8] concerns the target T8, GPVI peptide 7 (human).
T8 sequence (peptide, N-terminus acetylated): LCLGRVPAQSGPL
As to the kind of experiment: PepSpot control incubation.

Experiment [9] has as its target T9, GPVI peptide 11 (human).
T9 peptide: Ac-QSGPLPKPSLQAL
As to the kind of experiment: PepSpot control incubation.

For experiment [10], the target named is T10, GPVI peptide 37 (human).
T10 peptide: Ac-LFIPAMKRSLAGR
As to the kind of experiment: PepSpot control incubation.

Experiment [11] deals with T11, GPVI peptide 54 (human).
T11 peptide: Ac-ATGVFAKPSLSAQ
As to the kind of experiment: PepSpot control incubation.

The target of experiment [12] is collagen (type I bovine; BD Bioscience) (bovine) (UniProt P02453). As to the kind of experiment: ELISA, collagen type 1 coated plates, Lineweaver-Burk plot. Background: ELISA stands for enzyme-linked immunosorbent assay.
collagen (type I bovine; BD Bioscience) (bovine), sequence (P02453 162-1217, chain 1 of 2): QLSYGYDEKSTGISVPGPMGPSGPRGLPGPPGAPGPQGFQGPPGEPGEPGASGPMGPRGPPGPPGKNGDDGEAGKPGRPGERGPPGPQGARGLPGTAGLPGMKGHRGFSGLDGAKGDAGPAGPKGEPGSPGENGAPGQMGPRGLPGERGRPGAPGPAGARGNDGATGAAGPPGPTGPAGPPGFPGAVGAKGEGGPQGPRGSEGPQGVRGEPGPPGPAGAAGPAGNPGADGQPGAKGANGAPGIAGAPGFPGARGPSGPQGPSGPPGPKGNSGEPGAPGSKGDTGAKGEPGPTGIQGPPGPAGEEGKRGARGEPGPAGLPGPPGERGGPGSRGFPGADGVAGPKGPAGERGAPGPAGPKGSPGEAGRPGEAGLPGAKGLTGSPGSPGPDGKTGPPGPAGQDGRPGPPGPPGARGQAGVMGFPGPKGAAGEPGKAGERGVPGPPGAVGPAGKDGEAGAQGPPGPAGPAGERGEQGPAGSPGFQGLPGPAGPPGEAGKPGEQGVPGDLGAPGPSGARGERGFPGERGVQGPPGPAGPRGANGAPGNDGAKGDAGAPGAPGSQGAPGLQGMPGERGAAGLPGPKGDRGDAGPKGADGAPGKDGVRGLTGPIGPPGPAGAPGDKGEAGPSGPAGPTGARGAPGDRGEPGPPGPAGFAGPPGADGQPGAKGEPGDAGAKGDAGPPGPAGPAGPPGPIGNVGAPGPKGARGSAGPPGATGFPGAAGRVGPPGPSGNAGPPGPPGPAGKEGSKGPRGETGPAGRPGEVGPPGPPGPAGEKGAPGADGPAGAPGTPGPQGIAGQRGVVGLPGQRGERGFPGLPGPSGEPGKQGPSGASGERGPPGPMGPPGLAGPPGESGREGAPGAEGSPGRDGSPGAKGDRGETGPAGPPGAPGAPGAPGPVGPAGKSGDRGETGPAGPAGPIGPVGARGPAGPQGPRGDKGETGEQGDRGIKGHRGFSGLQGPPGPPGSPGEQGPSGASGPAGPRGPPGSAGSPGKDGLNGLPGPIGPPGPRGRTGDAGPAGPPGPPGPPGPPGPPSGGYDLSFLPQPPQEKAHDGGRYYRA
collagen (type I bovine; BD Bioscience) (bovine), sequence (P02465 80-1117, chain 2 of 2, further chain): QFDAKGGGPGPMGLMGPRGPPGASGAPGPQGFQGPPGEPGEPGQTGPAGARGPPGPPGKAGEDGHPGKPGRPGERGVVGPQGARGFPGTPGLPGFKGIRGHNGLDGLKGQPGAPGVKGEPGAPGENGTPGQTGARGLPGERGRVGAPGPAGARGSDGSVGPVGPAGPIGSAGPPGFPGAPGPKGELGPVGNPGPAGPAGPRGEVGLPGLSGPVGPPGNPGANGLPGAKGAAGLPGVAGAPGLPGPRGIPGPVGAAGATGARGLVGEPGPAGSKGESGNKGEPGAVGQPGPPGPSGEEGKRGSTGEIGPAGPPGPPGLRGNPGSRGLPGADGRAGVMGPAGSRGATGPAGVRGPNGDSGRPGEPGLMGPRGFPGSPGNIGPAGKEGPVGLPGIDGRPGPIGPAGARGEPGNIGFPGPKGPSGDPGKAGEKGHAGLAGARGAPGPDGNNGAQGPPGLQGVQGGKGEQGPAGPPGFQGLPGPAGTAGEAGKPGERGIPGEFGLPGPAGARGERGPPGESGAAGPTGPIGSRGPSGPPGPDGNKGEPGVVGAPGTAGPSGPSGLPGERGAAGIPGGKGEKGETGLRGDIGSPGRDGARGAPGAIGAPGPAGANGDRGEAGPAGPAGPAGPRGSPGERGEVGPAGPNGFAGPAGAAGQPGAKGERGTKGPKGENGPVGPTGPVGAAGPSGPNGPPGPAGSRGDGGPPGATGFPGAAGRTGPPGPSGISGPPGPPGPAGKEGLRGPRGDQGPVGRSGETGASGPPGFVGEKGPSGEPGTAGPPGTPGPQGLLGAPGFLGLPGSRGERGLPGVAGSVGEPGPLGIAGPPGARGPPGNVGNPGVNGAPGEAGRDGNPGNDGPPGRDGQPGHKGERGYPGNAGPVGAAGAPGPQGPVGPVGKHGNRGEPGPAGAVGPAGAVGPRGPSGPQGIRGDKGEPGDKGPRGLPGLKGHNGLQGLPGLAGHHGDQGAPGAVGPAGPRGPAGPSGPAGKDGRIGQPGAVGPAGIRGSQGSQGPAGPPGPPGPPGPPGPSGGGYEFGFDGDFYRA
The target in a further experiment is mouse GPVI (mouse) (UniProt P0C191). As to the kind of experiment: cell-based or functional assay.
mouse GPVI (mouse), sequence (P0C191 22-313): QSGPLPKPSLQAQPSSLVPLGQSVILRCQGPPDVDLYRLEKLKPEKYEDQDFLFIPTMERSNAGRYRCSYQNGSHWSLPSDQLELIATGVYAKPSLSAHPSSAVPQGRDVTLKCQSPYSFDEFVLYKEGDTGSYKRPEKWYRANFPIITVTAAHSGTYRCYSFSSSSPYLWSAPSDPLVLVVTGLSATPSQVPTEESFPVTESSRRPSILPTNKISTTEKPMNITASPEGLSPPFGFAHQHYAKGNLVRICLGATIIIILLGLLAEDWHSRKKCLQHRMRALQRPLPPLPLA
In another experiment the target is Fc-GPVI-nt (human). As to the kind of experiment: competition ELISA, immobilized collagen.
Fc-GPVI-nt (human), sequence (chain, as listed by the source limits assumed): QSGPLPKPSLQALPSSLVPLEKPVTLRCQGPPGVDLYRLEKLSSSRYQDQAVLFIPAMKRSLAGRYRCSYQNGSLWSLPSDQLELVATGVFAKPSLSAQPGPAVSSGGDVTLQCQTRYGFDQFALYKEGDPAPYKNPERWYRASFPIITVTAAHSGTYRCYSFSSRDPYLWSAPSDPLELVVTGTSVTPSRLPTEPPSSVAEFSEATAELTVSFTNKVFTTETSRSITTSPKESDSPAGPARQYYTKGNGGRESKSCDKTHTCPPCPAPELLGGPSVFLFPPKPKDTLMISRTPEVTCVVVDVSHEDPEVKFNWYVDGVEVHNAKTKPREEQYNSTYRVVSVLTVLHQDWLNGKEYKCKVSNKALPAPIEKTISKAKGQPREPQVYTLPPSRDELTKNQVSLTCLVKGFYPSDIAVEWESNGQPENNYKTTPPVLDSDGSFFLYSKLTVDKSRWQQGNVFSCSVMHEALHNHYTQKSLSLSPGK
The target in experiment [13] is T1, GPVI peptide 117 (human). Description: PepSpot array.
Experiment [14] addresses T2, GPVI peptide 118 (human). As to the kind of experiment: PepSpot array.
Experiment [15] deals with T3, GPVI peptide 130 (human). As to the kind of experiment: PepSpot array.
Experiment [16] has as its target T4, GPVI peptide 131 (human). Description: PepSpot array.
The target in experiment [17] is T5, GPVI peptide 32 (human). Description: PepSpot array.
Experiment [18] has as its target T6, GPVI peptide 33 (human). Description: PepSpot array.
Experiment [19] addresses T7, GPVI peptide 53 (human). As to the kind of experiment: PepSpot array.
Experiment [20] has as its target T8, GPVI peptide 7 (human). As to the kind of experiment: PepSpot array.
Experiment [21] has as its target T9, GPVI peptide 11. As to the kind of experiment: PepSpot array. As to the method:
(§1) The peptides were synthesized on a cellulose membrane in a stepwise manner resulting in a defined arrangement (peptide array) and are covalently bound to the cellulose membrane. Binding assays were performed directly on the peptide array. In general an antigen peptide array is incubated with blocking buffer for several hours to reduce non-specific binding of proteins or antibodies. It follows the incubation with a primary (antigen peptide-binding) antibody in blocking buffer and an incubation with a horseradish peroxidase (HRP)-labelled secondary antibody, which binds selectively the primary antibody. Alternatively a HRP-labelled primary antibody in blocking buffer can be used.
(§2) A short T(Tween)-TBS-buffer washing directly after the incubation of the antigen peptide array with the secondary protein or antibody or the HRP-labelled primary antibody followed by the first chemiluminescence experiment is made to get an first overview which antigen peptides do bind the primary antibody. Several buffer washing steps follow (T-TBS- and TBS-buffer) to reduce false positive binding (unspecific antibody binding to the cellulose membrane itself). After these washing steps the final chemiluminescence analysis is performed. The data were analysed with an imaging system showing the signal intensity (Light units, LU) as single measurements for each peptide. In order to evaluate non-specific binding of secondary antibodies, incubations using the secondary antibody have to be performed in the absence of the primary antibody as control incubation.

The target in experiment [22] is T10, GPVI peptide 37. Description: PepSpot array. As to the method: as §1, §2
Experiment [23] concerns the target T11, GPVI peptide 54. As to the kind of experiment: PepSpot array. As to the method:
as §1, §2

Regarding anti-rat-HRP (Sigma A9037) (antibody), the LU (Light Units) with GPVI peptide 117 (human) [1] came to 377 LU; with GPVI peptide 118 (human) [2], 354 LU; with GPVI peptide 130 (human) [3], 343 LU; with GPVI peptide 131 (human) [4] it was 389 LU; with GPVI peptide 32 (human) [5], 240 LU; with GPVI peptide 33 (human) [6] it was 204 LU. In addition, the LU (Light Units) was 240 LU in the experiment with GPVI peptide 53 (human) [7]; 239 LU with GPVI peptide 7 (human) [8]; 212 LU in the experiment with GPVI peptide 11 [9]; 280 LU in the experiment with GPVI peptide 37 [10]; 190 LU with GPVI peptide 54 [11].
Turning to “monomeric GPVI fusion protein (Fc fusion)”, the fold lower affinity compared to dimeric Fc-GPVI-nt in experiment [12] came out at 10 fold.
In the case of JAQ1 (antibody), in the experiment with mouse GPVI (mouse), the ATP release, mouse platelet-rich plasma came out at 1.09 nM ATP; the platelet aggregation after stimulation with 2 µg collagen/ml, mouse platelet-rich plasma is 2% and 1.5%.
For the molecule soluble collagen (ligand), in the experiment with Fc-GPVI-nt (human), the concentration required to reduce Fc-GPVI-nt binding to immobilized collagen by more than 50% worked out at 100 µg/mL.

B1: monoclonal antibody hGP 5C4 (antibody, V domains shown)
VH: EVKLQESGGGLVQPGRSLKLSCTASGFTFSDYFMSWVRQAPTRGLEWVASISSGGASAYWRDSVKGRFTISRDNAKSALYLQMDSLRSEDTATYFCARGELDFDYWGQGVMVAVSS
VL: ADPNSTLLSASVGDRVTLNCTASQNVYKNLAWYQQKLGEAPRLLLYSANSQTGIPSRFSGSGSGPDFTLTISSLQPEDVASYFCQQYYSGNTFGAGTKLELKR
notes: Monoclonal IgG from Lou/C rats immunized with Fc-GPVI-nt; also called ab 5C4; anti-GPVI mAb 5C4
B1: the LU (Light Units) with GPVI peptide 117 (human) [13] was found to be 472 LU; with GPVI peptide 118 (human) [14], 336 LU; with GPVI peptide 130 (human) [15], 255 LU; in the experiment with GPVI peptide 131 (human) [16] it was 289 LU; with GPVI peptide 32 (human) [17] it was 319 LU; with GPVI peptide 33 (human) [18] it was 259 LU. Also, the figures for the LU (Light Units) with GPVI peptide 53 (human) [19] and with GPVI peptide 7 (human) [20] were 359 LU and 292 LU, respectively. In addition, the entries for the “signal to noise ratio” value with GPVI peptide 11 [21], in the experiment with GPVI peptide 37 [22] and in the experiment with GPVI peptide 54 [23] were roughly 20, roughly 4 and roughly 4, respectively.
